Experimental data published in patent US20200317812A1 (AGENCY FOR SCIENCE TECHNOLOGY AND RESEARCH, published 2020).

Target: T1, AXL receptor tyrosine kinase (Homo sapiens, UniProt P30530 26-894, O-linked glycan (site not stated) reported as the TAG_TNB1 epitope)
T1 sequence (looked up): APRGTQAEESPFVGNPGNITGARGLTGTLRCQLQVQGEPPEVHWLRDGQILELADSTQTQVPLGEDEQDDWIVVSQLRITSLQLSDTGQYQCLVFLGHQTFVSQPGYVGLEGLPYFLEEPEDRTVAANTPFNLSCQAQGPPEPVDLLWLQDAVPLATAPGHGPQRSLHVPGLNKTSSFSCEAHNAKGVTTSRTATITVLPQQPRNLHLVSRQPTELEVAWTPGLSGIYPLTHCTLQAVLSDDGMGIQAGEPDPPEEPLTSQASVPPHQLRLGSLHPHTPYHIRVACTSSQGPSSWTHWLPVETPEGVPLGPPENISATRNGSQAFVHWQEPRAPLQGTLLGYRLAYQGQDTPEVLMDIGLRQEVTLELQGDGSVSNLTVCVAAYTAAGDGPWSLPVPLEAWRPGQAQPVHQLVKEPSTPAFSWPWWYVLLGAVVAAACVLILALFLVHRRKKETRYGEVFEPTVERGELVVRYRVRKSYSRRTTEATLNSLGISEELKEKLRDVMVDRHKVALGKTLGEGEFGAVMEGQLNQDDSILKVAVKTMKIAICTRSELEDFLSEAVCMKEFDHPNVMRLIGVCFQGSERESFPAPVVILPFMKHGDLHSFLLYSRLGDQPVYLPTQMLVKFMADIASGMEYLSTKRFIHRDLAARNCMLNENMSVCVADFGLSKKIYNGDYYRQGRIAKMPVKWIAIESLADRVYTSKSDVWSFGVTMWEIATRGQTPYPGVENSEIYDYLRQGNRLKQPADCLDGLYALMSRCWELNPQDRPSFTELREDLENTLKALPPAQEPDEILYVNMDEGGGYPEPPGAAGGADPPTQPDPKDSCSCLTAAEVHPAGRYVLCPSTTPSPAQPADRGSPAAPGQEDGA
Assay: cell-based or functional assay

B1: ch_TAG_TNB1-saporin (antibody, V domains shown)
VH: QVKLQESGAELVKPGASVKLSCKASGFTFTSYYMYWVKQRPGQGLEWIGGVSPSNGGANFNEKFKTKATLTVDKSSSTAYMQLSSLTSEDSAVYYCTRFLYGPRYFDVWGQGTTVTVSS
VL: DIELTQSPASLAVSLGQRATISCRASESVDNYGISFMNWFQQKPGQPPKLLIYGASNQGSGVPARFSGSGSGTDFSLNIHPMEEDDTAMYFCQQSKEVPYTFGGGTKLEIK
modifications: Saporin toxin directly conjugated to the antibody; site and chain not stated
How did the “IC50, Cell Titre Glo cell viability, BT549 cells” value turn out when B1 was run?
Its value is 1.24 nM.

What about the “IC50, Cell Titre Glo cell viability, H1299 cells” value of the same binder?
Its value is 0.0353 nM.

What about the “IC50, Cell Titre Glo cell viability, Hs578T cells” value of the same binder?
Its value is 0.529 nM.

What about the “IC50, Cell Titre Glo cell viability, MDA-MB-231 cells” value of the same binder?
The value was 0.34 nM.
